Source: patent publication CN1678347A

Columns and labels:
[1] = biological target: PSGL-1 (P-选择蛋白糖蛋白配体-1) (human) (UniProt Q14242); assay: FACS on ML2 cells, KPL-1-PE alone
[2] = biological target: PSGL-1 (P-选择蛋白糖蛋白配体-1) (human) (UniProt Q14242); assay: FACS competition on ML2 cells, 200ng KPL-1 against IgG Y1-PE

UniProt Q14242, sequence (Q14242 42-412): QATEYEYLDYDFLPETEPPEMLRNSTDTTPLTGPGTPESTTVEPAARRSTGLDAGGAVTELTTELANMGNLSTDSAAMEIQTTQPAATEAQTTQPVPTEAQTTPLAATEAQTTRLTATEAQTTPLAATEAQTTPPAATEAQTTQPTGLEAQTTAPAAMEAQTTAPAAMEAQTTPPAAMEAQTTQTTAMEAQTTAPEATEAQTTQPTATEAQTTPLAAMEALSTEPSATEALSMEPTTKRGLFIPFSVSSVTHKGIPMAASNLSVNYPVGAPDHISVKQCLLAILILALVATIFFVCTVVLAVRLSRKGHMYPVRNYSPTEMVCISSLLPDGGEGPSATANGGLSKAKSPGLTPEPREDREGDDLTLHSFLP

中值 (median fluorescence) [1]: 700 | 中值 of IgG Y1-PE with competitor (median fluorescence) [2]: 2 | 抑制百分比 [2]: 100%
Substance: KPL-1 (商业化供应的抗PSGL1小鼠单克隆抗体) (antibody)
